Four molecules from article doi:10.64898/2025.12.22.696049 (bioRxiv, 2025) can be followed below.

Common to all, as to experiment: cryo-EM structure
The target of data set [1] is S. pombe fatty acid synthase subunit FAS1/ß (S. pombe (endogenous in K972 cells)) (UniProt Q9UUG0).
The target in data set [2] is S. cerevisiae fatty acid synthase subunit FAS1/ß (S. cerevisiae (endogenous in W303 or BY4742 cells)) (UniProt P07149).
The data set “cryo-EM structure” deals with the molecule itself.

In data set [1], “S. pombe fatty acid synthase subunit FAS1/ß, Q9UUG0 1-2073” registered a stoichiometry N of 3.

In data set [2], “S. cerevisiae fatty acid synthase subunit FAS1/ß, P07149 1-2051” had a stoichiometry N of 3.

B1: S. pombe fatty acid synthase subunit FAS2/α (enzyme, S. pombe (endogenous in K972 cells), UniProt Q10289 1-1842, looked up)
chain: MRPEVEQELAHTLLLELLAYQFASPVRWIETQDVILSPPVSAERIVEIGPSPTLAGMAKRTLKLKYENMDAALSINREVLCYSKDAREIYYNFEDEVADEPAEAPASTSSTPKVETAAAAAPAATPAPAPAQTSAPAAALPDEPPKALEVLHTLVAQKLKKSIEEVSPQKSIKDLVGGKSTLQNEILGDLQKEFGATPEKPEEVPLDELGAIMQSSFNGSLGKQSSSLISRMISSKMPGGFNNSAVRGYLGNRYGLGPGRLESVLLLALTMEPASRLGSEADAKAWLDSVAQKYAARNGVTLSSPTAEGGSSSGSAAVIDEETFKKLTKNNTMLVTQQLELFARYLNKDLRAGQKAQVAEKVISDTLRAQLDLWNEEHGEFYASGIAPIFSPLKARVYDSDWNWARQDALKMFFDIIFGRLKHVDTEIVARCISVMNRSNPTLLEFMQYHIDHCPAEKGETYQLAKTLGQQLIDNCKSVIDAPPVFKNVNHPTAPSTTIDERGNLNYEEIPRPGVRKLTHYVTEMAKGGKLPTESKNKAKVQNDLARIYRIIKSQNKMSRSSKLQIKQLYGQVLHALSLPLPSSNDEQTPVKETIPFLHIRKKSVDGNWEFNKSLTGTYLDVLESGAKNGITYQDKYALVTGAGAGSIGAQIVEGLLAGGAKVVVTTSRFSRKVTEFYQSLYTRHGSRGSCLIVVPFNQGSKTDVEALIDYIYDEKKGLGWNLDYIVPFAAIPENGREIDGIDSRSEFAHRIMLTNILRLLGAVKSQKASRGMDTRPAQVILPLSPNHGTFGNDGLYSESKLGLETLFNRWYSESWANYLTICGAVIGWTRGTGLMAPNNIVSQGIEKYGVRTFSQSEMAFNILGLMSQKVVDLCQSEPIYANLNGGLELLPDLKDLSTRLRTELLETAEIRRAVAAETAFDHSITNGPDSEAVFQKTAIQPRANLKFNFPKLKPYEALSHLSDLRGMVDLEKVPVVTGFSEVGPWGNSRTRWDMECYGEFSLEGCVEIAWIMGLIKNFNGKGKDGKPYSGWVDTKTGEPVDDKDVKAKYEKYILEHCGIRIIEAELFHGYNPEKKELLQEVVIDHDLEPFEASKEAAHEFKLRHGDQVEIFEIPDSTEWSVRFKRGTSMLIPKALRFDRFVAGQIPLGWDPKRYGIPDDIISQVDPTTLYVLVSTVEALVASGITDPYECYKYIHVSELGNTVGSGIGGMSALRGMYKDRWTDKPVQKDILQESFINTANAWINMLLLSASGPIKTPVGACATAVESVDAAVDLITSGKARICISGGYDDFSEEGSYEFANMGATSNAAKETERGRTPQEMSRPATSTRDGFMESQGAGVQIIMQAKLAIEMGVPIHGIVGYVSTAMDKQGRSVPAPGQGILTGAREIATKTPLPIVDLKFRSRQLQRRRSQIGEWAEREYLYLEEELDAMKVQNPDLDLEAYRIERINVIKEEVVRQEKEALNTFGNEFWKRDPTIAPIRGALAVWGLTIDDLGVASFHGTSTKANEKNECDVIDSQLTHLGRSKGNAVYGVFQKYLTGHSKGGAGAWMLNGALQILRSGFVPGNRNADNIDEYLARFDRVMFPSEGIQTDGIKAASVTAFGFGQVGGQVIVIHPDYIYGVIDEATYNAYKAKTAARYKASYRYTHDALVYNNLVRAKDSPPYTKEQEKAVYLNPLARASKSKAGTWTFPATLPAESDISKTNETTRTLQSLTTSLTNSNENVGVDVELVSAISIDNETFIERNFTDTERKYCFAAPNPQASFAGRWSAKEAVFKSLGISGKGAAAPLKDIEIISSESGAPEVVLHGEAAKAATTAGVKSVSVSISHDDNQSVSVALAHK
For B1, the “stoichiometry N” value in “cryo-EM structure” amounted to 6.

B2: S. cerevisiae fatty acid synthase subunit FAS2/α (enzyme, UniProt P19097 1-1887, looked up)
chain: MKPEVEQELAHILLTELLAYQFASPVRWIETQDVFLKDFNTERVVEIGPSPTLAGMAQRTLKNKYESYDAALSLHREILCYSKDAKEIYYTPDPSELAAKEEPAKEEAPAPTPAASAPAPAAAAPAPVAAAAPAAAAAEIADEPVKASLLLHVLVAHKLKKSLDSIPMSKTIKDLVGGKSTVQNEILGDLGKEFGTTPEKPEETPLEELAETFQDTFSGALGKQSSSLLSRLISSKMPGGFTITVARKYLQTRWGLPSGRQDGVLLVALSNEPAARLGSEADAKAFLDSMAQKYASIVGVDLSSAASASGAAGAGAAAGAAMIDAGALEEITKDHKVLARQQLQVLARYLKMDLDNGERKFLKEKDTVAELQAQLDYLNAELGEFFVNGVATSFSRKKARTFDSSWNWAKQSLLSLYFEIIHGVLKNVDREVVSEAINIMNRSNDALIKFMEYHISNTDETKGENYQLVKTLGEQLIENCKQVLDVDPVYKDVAKPTGPKTAIDKNGNITYSEEPREKVRKLSQYVQEMALGGPITKESQPTIEEDLTRVYKAISAQADKQDISSSTRVEFEKLYSDLMKFLESSKEIDPSQTTQLAGMDVEDALDKDSTKEVASLPNKSTISKTVSSTIPRETIPFLHLRKKTPAGDWKYDRQLSSLFLDGLEKAAFNGVTFKDKYVLITGAGKGSIGAEVLQGLLQGGAKVVVTTSRFSKQVTDYYQSIYAKYGAKGSTLIVVPFNQGSKQDVEALIEFIYDTEKNGGLGWDLDAIIPFAAIPEQGIELEHIDSKSEFAHRIMLTNILRMMGCVKKQKSARGIETRPAQVILPMSPNHGTFGGDGMYSESKLSLETLFNRWHSESWANQLTVCGAIIGWTRGTGLMSANNIIAEGIEKMGVRTFSQKEMAFNLLGLLTPEVVELCQKSPVMADLNGGLQFVPELKEFTAKLRKELVETSEVRKAVSIETALEHKVVNGNSADAAYAQVEIQPRANIQLDFPELKPYKQVKQIAPAELEGLLDLERVIVVTGFAEVGPWGSARTRWEMEAFGEFSLEGCVEMAWIMGFISYHNGNLKGRPYTGWVDSKTKEPVDDKDVKAKYETSILEHSGIRLIEPELFNGYNPEKKEMIQEVIVEEDLEPFEASKETAEQFKHQHGDKVDIFEIPETGEYSVKLLKGATLYIPKALRFDRLVAGQIPTGWNAKTYGISDDIISQVDPITLFVLVSVVEAFIASGITDPYEMYKYVHVSEVGNCSGSGMGGVSALRGMFKDRFKDEPVQNDILQESFINTMSAWVNMLLISSSGPIKTPVGACATSVESVDIGVETILSGKARICIVGGYDDFQEEGSFEFGNMKATSNTLEEFEHGRTPAEMSRPATTTRNGFMEAQGAGIQIIMQADLALKMGVPIYGIVAMAATATDKIGRSVPAPGKGILTTAREHHSSVKYASPNLNMKYRKRQLVTREAQIKDWVENELEALKLEAEEIPSEDQNEFLLERTREIHNEAESQLRAAQQQWGNDFYKRDPRIAPLRGALATYGLTIDDLGVASFHGTSTKANDKNESATINEMMKHLGRSEGNPVIGVFQKFLTGHPKGAAGAWMMNGALQILNSGIIPGNRNADNVDKILEQFEYVLYPSKTLKTDGVRAVSITSFGFGQKGGQAIVVHPDYLYGAITEDRYNEYVAKVSAREKSAYKFFHNGMIYNKLFVSKEHAPYTDELEEDVYLDPLARVSKDKKSGSLTFNSKNIQSKDSYINANTIETAKMIENMTKEKVSNGGVGVDVELITSINVENDTFIERNFTPQEIEYCSAQPSVQSSFAGTWSAKEAVFKSLGVKSLGGGAALKDIEIVRVNKNAPAVELHGNAKKAAEEAGVTDVKVSISHDDLQAVAVAVSTKK
Take B2: the “stoichiometry N” value in “cryo-EM structure” turned out to be 6.

One may read the stoichiometry N as the number of molecules, sites or subunits per partner or assembly.
